In patent publication US20170010270A1 (Chugai, published 2017):

Columns and labels:
Experiment in all cases: ELISA on immobilised peptide
[1] = target: T1, GPC3 peptide, amino acid position 541-570 (SEQ ID NO: 28) (human)
T1 construct: synthetic 30-residue peptide of GPC3
T1 peptide: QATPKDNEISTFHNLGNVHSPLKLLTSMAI
Procedure: (§1) In order to identify more detailed epitopes for the antibodies, the amino acid sequence of GPC3 was divided into peptides of 30 residues containing 10-residue overlaps, and the corresponding peptides were synthesized (SEQ ID NOs: 1 to 29 in Table 2). Each peptide thus synthesized was dissolved at a concentration of 1 mg/mL in dimethyl sulfoxide and then diluted to 1 μg/mL with PBS. The diluted peptide solution was added at 70 μL/well to a 96-well plate and immobilized thereon at room temperature for 1 hour. After removal of unimmobilized peptides, 20% Blocking-one (Nacalai Tesque, Inc.) was added thereto as a blocking buffer solution at 200 μL/well, and the plate was blocked overnight. After removal of the blocking buffer solution, each well was washed with TBS-T three times, and each antibody diluted to 2 μg/mL with a blocking buffer was then added thereto at 70 μL/well. One hour later, the antibody was removed, and each well was washed three times by the addition of TBS-T at 200 μL/well. An HRP-bound anti-mouse antibody was added at 70 μL/well to each well and reacted therewith for 1 hour. After removal of the antibody, each well was washed with 200 μL/well of TBS-T three times, and a chromogenic reagent ABTS Peroxidase Substrate System (1 component, KPL, Kirkegaard & Perry Laboratories, Inc.) was then added thereto at 70 μL/well and reacted at room temperature for […] to develop color. The reaction was terminated by the addition of 1% SDS at 70 μL/well, and the absorbance at 405 nm was measured using a plate reader.

[2] = target: T2, GPC3 peptide, amino acid position 61-90 (SEQ ID NO: 4) (human)
T2 construct: synthetic 30-residue peptide of GPC3
T2 peptide: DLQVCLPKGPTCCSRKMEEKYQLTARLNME
Procedure: as §1

[3] = target: T3, GPC3 peptide, amino acid position 121-150 (SEQ ID NO: 7) (human)
T3 construct: synthetic 30-residue peptide of GPC3
T3 peptide: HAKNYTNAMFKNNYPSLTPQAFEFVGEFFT
Procedure: as §1

[4] = target: T4, GPC3 peptide, amino acid position 421-450 (SEQ ID NO: 22) (human)
T4 construct: synthetic 30-residue peptide of GPC3
T4 peptide: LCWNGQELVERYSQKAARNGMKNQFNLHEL
Procedure: as §1

[5] = target: T5, GPC3 peptide, amino acid position 501-530 (SEQ ID NO: 26) (human)
T5 construct: synthetic 30-residue peptide of GPC3
T5 peptide: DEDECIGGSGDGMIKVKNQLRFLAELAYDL
Procedure: as §1

[6] = target: T6, GPC3 peptide, amino acid position 521-550 (SEQ ID NO: 27) (human)
T6 construct: synthetic 30-residue peptide of GPC3
T6 peptide: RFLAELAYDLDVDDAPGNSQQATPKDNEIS
Procedure: as §1

[7] = target: T7, GPC3 peptide, amino acid position 261-290 (SEQ ID NO: 14) (human)
T7 construct: synthetic 30-residue peptide of GPC3
T7 peptide: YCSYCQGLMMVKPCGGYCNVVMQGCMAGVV
Procedure: as §1

[8] = target: T8, GPC3 peptide, amino acid position 201-230 (SEQ ID NO: 11) (human)
T8 construct: synthetic 30-residue peptide of GPC3
T8 peptide: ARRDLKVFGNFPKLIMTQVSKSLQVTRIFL
Procedure: as §1

[9] = target: T9, GPC3 peptide, amino acid position 361-390 (SEQ ID NO: 19) (human)
T9 construct: synthetic 30-residue peptide of GPC3
T9 peptide: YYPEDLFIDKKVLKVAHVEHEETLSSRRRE
Procedure: as §1

[10] = target: T10, GPC3 peptide, amino acid position 441-470 (SEQ ID NO: 23) (human)
T10 construct: synthetic 30-residue peptide of GPC3
T10 peptide: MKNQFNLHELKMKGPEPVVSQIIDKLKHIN
Procedure: as §1

[11] = target: T11, GPC3 peptide, amino acid position 461-490 (SEQ ID NO: 24) (human)
T11 construct: synthetic 30-residue peptide of GPC3
T11 peptide: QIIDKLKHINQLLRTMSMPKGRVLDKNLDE
Procedure: as §1

[12] = target: T12, GPC3 peptide, amino acid position 381-410 (SEQ ID NO: 20) (human)
T12 construct: synthetic 30-residue peptide of GPC3
T12 peptide: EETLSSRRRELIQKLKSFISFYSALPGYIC
Procedure: as §1

[13] = target: T13, GPC3 peptide, amino acid position 41-70 (SEQ ID NO: 3) (human)
T13 construct: synthetic 30-residue peptide of GPC3
T13 peptide: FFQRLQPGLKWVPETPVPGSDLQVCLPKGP
Procedure: as §1

[14] = target: T14, GPC3 peptide, amino acid position 221-250 (SEQ ID NO: 12) (human)
T14 construct: synthetic 30-residue peptide of GPC3
T14 peptide: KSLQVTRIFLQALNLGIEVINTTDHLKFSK
Procedure: as §1

[15] = target: T15, GPC3 peptide, amino acid position 1-30 (SEQ ID NO: 1) (human)
T15 construct: synthetic 30-residue peptide of GPC3
T15 peptide: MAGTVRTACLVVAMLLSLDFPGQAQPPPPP
Procedure: as §1

[16] = target: T16, GPC3 peptide, amino acid position 21-50 (SEQ ID NO: 2) (human)
T16 construct: synthetic 30-residue peptide of GPC3
T16 peptide: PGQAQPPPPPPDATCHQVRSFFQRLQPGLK
Procedure: as §1

[17] = target: T17, GPC3 peptide, amino acid position 181-210 (SEQ ID NO: 10) (human)
T17 construct: synthetic 30-residue peptide of GPC3
T17 peptide: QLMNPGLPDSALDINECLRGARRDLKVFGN
Procedure: as §1

[18] = target: T18, GPC3 peptide, amino acid position 551-580 (SEQ ID NO: 29) (human)
T18 construct: synthetic 30-residue peptide of GPC3
T18 peptide: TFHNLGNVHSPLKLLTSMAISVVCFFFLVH
Procedure: as §1

[19] = target: T19, GPC3 peptide, amino acid position 101-130 (SEQ ID NO: 6) (human)
T19 construct: synthetic 30-residue peptide of GPC3
T19 peptide: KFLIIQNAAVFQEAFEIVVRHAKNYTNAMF
Procedure: as §1

[20] = target: T20, GPC3 peptide, amino acid position 281-310 (SEQ ID NO: 15) (human)
T20 construct: synthetic 30-residue peptide of GPC3
T20 peptide: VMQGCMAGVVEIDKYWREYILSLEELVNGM
Procedure: as §1

[21] = target: T21, GPC3 peptide, amino acid position 301-330 (SEQ ID NO: 16) (human)
T21 construct: synthetic 30-residue peptide of GPC3
T21 peptide: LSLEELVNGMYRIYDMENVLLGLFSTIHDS
Procedure: as §1

[22] = target: T22, GPC3 peptide, amino acid position 481-510 (SEQ ID NO: 25) (human)
T22 construct: synthetic 30-residue peptide of GPC3
T22 peptide: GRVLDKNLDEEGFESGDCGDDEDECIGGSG
Procedure: as §1

[23] = target: T23, GPC3 peptide, amino acid position 341-370 (SEQ ID NO: 18) (human)
T23 construct: synthetic 30-residue peptide of GPC3
T23 peptide: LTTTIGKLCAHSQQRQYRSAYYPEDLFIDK
Procedure: as §1

Measured: binding result

B1: GT607 antibody (antibody, IgG1, V domains shown)
VH: EVQLVESGGDVVRPGGSLKLSCAASGFTFSSYGMSWVRQLPDKRLEWVASVGNGGSYRYYPENLKGRFTISRDNTKNTLYLQISGLKSEDTAIYYCARRGAFPYFDVWGAGTTVTVSS
VL: QIVLTQSPAIMSASPGEKVTLACSASSSVTYMHWYQQKSGTSPKRWIYETSKLASGVPPRFSGSGSGTSYSLTISTMEAEDAATYYCQQWSSNPLTFGAGTKLELKR
no binding (tested: 2 µg/mL): [1] | [2] | [3] | [4] | [5] | [6] | [7] | [8] | [9] | [10] | [11] | [12] | [13] | [14] | [15] | [16] | [17] | [18] | [19] | [20] | [21] | [22] | [23]

B2: GT165 antibody (antibody, IgG1, V domains shown)
VH: QVQLQQSGAELVGPGASVKISCKAFGYTFTNHHINWVKQRPGQGLDWIGYINPYNDYTNYNQKFKGKATLTVDKSSSTAYMELSSLTSEDSAVYYCARSDPAWFAYWGQGTLVTVSA
VL: DIQMTQSPSSLSASLGGKVTITCKASQDINKNIAWYQHKPGKGPRLLIWYTYTLQPGIPSRFSGSGSGRDYSFSISNLEPEDIATYYCLQYDNLPFTFGTGTKLEIKR
no binding (tested: 2 µg/mL): [1] | [2] | [3] | [4] | [5] | [6] | [7] | [8] | [9] | [10] | [11] | [12] | [13] | [14] | [15] | [16] | [17] | [18] | [19] | [20] | [21] | [22] | [23]

B3: GT114 antibody (antibody, IgG1, V domains shown)
VH: DVQLQESGPGLVKPSQSLSLTCTVTGYSITSDSAWNWIRQFPGNKLEWMAYIMYSGITSYNPSLKSRISITRDTAKNQFFLQLNSVTTEDSATYYCSRGYWYFDVWGAGTTVTVSS
VL: QIVLTQSPAIMSASLGEEITLTCSASSSVSYMHWYQQKSGTSPKLLIYSTSILASGVPSRFSGSGSGTFYSLTISSVEAEDAADYYCLQWITYRTFGGGTKLEIKR
no binding (tested: 2 µg/mL): [1] | [2] | [3] | [4] | [5] | [6] | [7] | [8] | [9] | [10] | [11] | [12] | [13] | [14] | [15] | [16] | [17] | [18] | [19] | [20] | [21] | [22] | [23]
